Positions count from the first letter of the chain named.
How the values were obtained:
GST-BrERF72 [1] = biological target: T1, GST-BrERF72 (Brassica (Chinese flowering cabbage), UniProt M4CBR0 1-245); test: EMSA; LightShift Chemiluminescent EMSA kit, 6% native PAGE; buffer, salt, pH and temperature not stated; settings: protein: recombinant, tags: N-terminal GST (pGEX-4T-1), label: 5' biotin
GST-BrERF72 [2] = biological target: T1, GST-BrERF72; test: competition; unlabeled mutant vs labeled BrOPR3 probe; LightShift Chemiluminescent EMSA kit, 6% native PAGE; buffer, salt, pH and temperature not stated; settings: protein: recombinant; tags: N-terminal GST (pGEX-4T-1); blunt
GST-BrERF72 [3] = biological target: T1, GST-BrERF72; test: competition; unlabeled mutant vs labeled BrLOX4 probe; LightShift Chemiluminescent EMSA kit, 6% native PAGE; buffer, salt, pH and temperature not stated; settings: protein: recombinant; tags: N-terminal GST (pGEX-4T-1); blunt
GST-BrERF72 [4] = biological target: T1, GST-BrERF72; test: competition; unlabeled mutant vs labeled BrAOC3 probe; LightShift Chemiluminescent EMSA kit, 6% native PAGE; buffer, salt, pH and temperature not stated; settings: protein: recombinant; tags: N-terminal GST (pGEX-4T-1); blunt

T1 sequence (M4CBR0 entry or part of it): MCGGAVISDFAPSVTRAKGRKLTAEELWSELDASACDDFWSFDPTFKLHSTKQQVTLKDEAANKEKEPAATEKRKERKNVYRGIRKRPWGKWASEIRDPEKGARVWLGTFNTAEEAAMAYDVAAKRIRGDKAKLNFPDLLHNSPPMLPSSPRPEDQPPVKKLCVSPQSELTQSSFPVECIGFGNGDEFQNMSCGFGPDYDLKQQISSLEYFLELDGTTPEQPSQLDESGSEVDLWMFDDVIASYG

B1: BrOPR3 promoter probe (dsDNA)
DNA 1: CCTGAACCAATCATAGCCTGGCGGCTAAGTCTTACAGTTGA
DNA 2: TCAACTGTAAGACTTAGCCGCCAGGCTATGATTGGTTCAGG
B1: binds (GST-BrERF72 [1]; blunt).

B2: mBrOPR3 promoter probe (dsDNA)
DNA 1: CCTGAACCAATCATAGCCTAAAAAATAAGTCTTACAGTTGA
DNA 2: TCAACTGTAAGACTTATTTTTTAGGCTATGATTGGTTCAGG
B2: no binding (GST-BrERF72 [2]).

B3: DRE/CRT probe (dsDNA)
DNA 1: ATTTCATGGCCGACCTGCTTTCATGGCCGACCTGCTTT
DNA 2: AAAGCAGGTCGGCCATGAAAGCAGGTCGGCCATGAAAT
B3: binds (GST-BrERF72 [1]).

B4: GCC-box probe (dsDNA)
DNA 1: CATAAGAGCCGCCACTCATAAGAGCCGCCACT
DNA 2: AGTGGCGGCTCTTATGAGTGGCGGCTCTTATG
B4: binds (GST-BrERF72 [1]).

B5: BrLOX4 promoter probe (dsDNA)
DNA 1: ACATGTTATATCCGCGCGAAGCGCGGACACCGACTCTAGTTATCAGTAAAAATAAATG
DNA 2: CATTTATTTTTACTGATAACTAGAGTCGGTGTCCGCGCTTCGCGCGGATATAACATGT
B5: binds (GST-BrERF72 [1]; blunt).

B6: mBrLOX4 promoter probe (dsDNA)
DNA 1: B5 DNA 1 with C30A, C31A, G32A, C34A
DNA 2: B5 DNA 2 with G25T, C27T, G28T, G29T
B6: no binding (GST-BrERF72 [3]).

B7: BrAOC3 promoter probe (dsDNA)
DNA 1: ATGTCTTCACTAAAAACACTATACCGACCAGAGTTTTGTAGACATAAATTACGAA
DNA 2: TTCGTAATTTATGTCTACAAAACTCTGGTCGGTATAGTGTTTTTAGTGAAGACAT
B7: binds (GST-BrERF72 [1]; blunt).

B8: mBrAOC3 promoter probe (dsDNA)
DNA 1: B7 DNA 1 with C24A, C25A, G26A, C28A
DNA 2: B7 DNA 2 with G28T, C30T, G31T, G32T
B8: no binding (GST-BrERF72 [4]).

— article PMC5928098, “Association of BrERF72 with methyl jasmonate-induced leaf senescence of Chinese flowering cabbage through activating JA biosynthesis-related genes”
